For two molecules, 效价 (ELISA titer, highest positive dilution) (dilution factor) results are on record in patent CN113150138A.

The target of the experiment is 重组KPC-2蛋白 (recombinant KPC-2 protein, Klebsiella pneumoniae carbapenemase KPC-2) (Klebsiella pneumoniae (肺炎克雷伯菌)) (UniProt Q848S6). Description: indirect ELISA, KPC-2 coated at 100 ng/well, antibody diluted 1:10000 to 1:2560000. In general terms: ELISA stands for enzyme-linked immunosorbent assay.
Chain of UniProt Q848S6 (Q848S6 25-293): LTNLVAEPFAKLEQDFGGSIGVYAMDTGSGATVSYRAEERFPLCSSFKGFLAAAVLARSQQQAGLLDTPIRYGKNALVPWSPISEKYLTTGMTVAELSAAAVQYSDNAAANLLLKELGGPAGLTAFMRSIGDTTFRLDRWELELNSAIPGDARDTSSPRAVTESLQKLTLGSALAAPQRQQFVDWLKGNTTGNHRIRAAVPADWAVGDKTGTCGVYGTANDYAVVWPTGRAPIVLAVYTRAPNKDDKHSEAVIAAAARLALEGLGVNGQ

B1: KPC-2单克隆抗体 4B2 (antibody, V domains shown)
VH: QVQLQQPGAELVKPGASVKMSCKASGYTFTSYNMHWVKQTPGQGLEWIGGLYPGNGDTSYNQKFKGRATLTADKSSSTAYMKLSSLTSEDSAVYFCARVGYGHYYFDYWGQGTTLTVSS
VL: DIKMTQSPSSMYASLGERVTIICKASQDINNYLSWFQQKPGKSPKTLIYRANRLAEGVPSRFSGIGSGQDYSLTISSLEYEDMGIYYCLQYDEFPLTFGAGTKLELK
B1: the 效价 (ELISA titer, highest positive dilution) (dilution factor) was above 2e+06.

B2: KPC-2单克隆抗体 1D7 (antibody, V domains shown)
VH: EVQLQQSGPELVKPGASMKISCKASGYSFTGYTMNWVKQSHGKNLEWIGLINPYNGVTTYNQRFKDKATLTVDKSSITAYMELLSLTSEDSAVYYCARRGLLGLYAMDYWGQGTSVTVSS
VL: DVQITQSPSYLAASPGETITINCRASESIFKFLAWYQEKPGKTNRLLIYSGSTLQSGIPSRFSGSGSGTDFTLTISSLEPEDFAMYYCQQHNEYPLTFGAGTKLELK
Regarding B2, the 效价 (ELISA titer, highest positive dilution) (dilution factor) was above 2e+06.
